Source: paper PMC8184817, “Transmission of light signals from the light-oxygen-voltage core via the hydrophobic region of the β-sheet surface in aureochrome-1” (Scientific Reports, 2021)
Numbering of substitutions follows the chain as printed.

Key:
Conditions in all cases: protein: recombinant; chain copies: 2; label: Alexa Fluor647 (EMSA); biotin (QCM); blunt; self-complementary palindrome, 2 copies
PZ V314I = molecular target: T1, PZ V314I (Vaucheria frigida? (VfAUREO1), UniProt A8QW55 113-348, C162S;C182S;V314I); assay: EMSA; QCM; dark state; EC50 similar to light; EMSA: 5% polyacrylamide gel, 25 C, dark or blue light 5 W/m2; QCM: 27 MHz, QCM buffer, 25 C; buffer, salt and pH not given (earlier papers cited); EC50 values (nM, per monomer) only in figures
T1 sequence: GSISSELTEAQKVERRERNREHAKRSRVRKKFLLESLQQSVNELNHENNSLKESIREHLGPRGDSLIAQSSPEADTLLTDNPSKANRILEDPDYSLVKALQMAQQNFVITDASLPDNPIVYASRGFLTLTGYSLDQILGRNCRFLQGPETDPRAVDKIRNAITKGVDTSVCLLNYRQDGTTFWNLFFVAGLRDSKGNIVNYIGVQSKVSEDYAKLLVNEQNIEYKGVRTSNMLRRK

PZ Q216A = molecular target: T2, PZ Q216A (Vaucheria frigida? (VfAUREO1), UniProt A8QW55 113-348, C162S;C182S;Q216A); assay: EMSA; QCM; dark state; EC50 similar to wtPZ; EMSA: 5% polyacrylamide gel, 25 C, dark or blue light 5 W/m2; QCM: 27 MHz, QCM buffer, 25 C; buffer, salt and pH not given (earlier papers cited); EC50 values (nM, per monomer) only in figures
T2 sequence: T1 sequence with Q104A, I202V

PZ Q217A = molecular target: T3, PZ Q217A (Vaucheria frigida? (VfAUREO1), UniProt A8QW55 113-348, C162S;C182S;Q217A); assay: as above
T3 sequence: T1 sequence with Q105A, I202V

PZ L212A = molecular target: T4, PZ L212A (Vaucheria frigida? (VfAUREO1), UniProt A8QW55 113-348, C162S;C182S;L212A); assay: as above
T4 sequence: T1 sequence with L100A, I202V

Measured: binding result

B1: dsApo (dsDNA)
DNA 1: GCTGTCTGACGTCAGACAGC
DNA 2: GCTGTCTGACGTCAGACAGC
binds: all assays above
